This note sets out measurements from patent US20240209086A1 (PETMEDIX, published 2024).

This assay has as its target canine CD3 on canine T cells (canine PBMC) (canine, UniProt P27597 22-202). Nature of the assay: cell-based or functional assay.

Chain of canine CD3 on canine T cells (canine PBMC) (P27597 22-202 limits assumed, chain 1 of 3): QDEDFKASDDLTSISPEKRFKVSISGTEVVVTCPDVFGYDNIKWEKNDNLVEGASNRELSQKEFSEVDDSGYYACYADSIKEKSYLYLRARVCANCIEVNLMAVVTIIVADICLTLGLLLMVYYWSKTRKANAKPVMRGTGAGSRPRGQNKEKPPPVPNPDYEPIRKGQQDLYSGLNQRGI
Chain of canine CD3 on canine T cells (canine PBMC) (chain, as listed by the source limits assumed, chain 2 of 3): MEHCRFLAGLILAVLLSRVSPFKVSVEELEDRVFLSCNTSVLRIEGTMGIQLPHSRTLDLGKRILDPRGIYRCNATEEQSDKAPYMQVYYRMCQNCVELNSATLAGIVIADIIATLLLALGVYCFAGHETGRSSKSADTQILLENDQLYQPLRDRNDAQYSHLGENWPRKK
Chain of canine CD3 on canine T cells (canine PBMC) (chain, as listed by the source limits assumed, chain 3 of 3): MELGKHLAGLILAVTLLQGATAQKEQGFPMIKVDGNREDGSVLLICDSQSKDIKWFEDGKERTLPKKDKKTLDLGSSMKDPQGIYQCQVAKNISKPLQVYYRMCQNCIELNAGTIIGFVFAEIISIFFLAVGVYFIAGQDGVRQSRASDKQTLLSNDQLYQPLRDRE

B1: PMX158 (monospecific anti-canine CD3, canine IgG-B effector function deficient Fc) (antibody, V domains shown)
VH: ELTLQESGPGLVKPSQTLSLTCVVSGGSVTRSYYWNWIRQRPGRGLEWMGYWTGTTNYNPAFQGRISITADTAKNQCSLQLSSMTTEDTAVYYCAREGGKLLGAFGHWGQGTLVTVSS
VL: SYVLTQLPSKNVTLKQPAHITCGGDKIGSKSVHWYQQKLGQAPVLIIYYDSSRLTGIPERFSGANSGNTATLTISGALAEDEADYYCQVWDSSAKASVFGGGTHLTVL
With B1, the “CD25 Activation, Day 6, IS” value worked out at 13.1; the “CD25 Activation, Day 6, PB” value is 9.65; the “CD25 Activation, Day 9, IS” value came out at 5.45; the “CD25 Activation, Day 9, PB” value was 12.3. The “IFNy Concentration pg/ml, Day 6, IS” value came out at 48.2 pg/mL; the “IFNy Concentration pg/ml, Day 9, IS” value came out at 88.3 pg/mL; the “IFNy Concentration pg/ml, Day 9, PB” value was found to be 2440 pg/mL; the “Ki67 Proliferation, Day 6, IS” value stood at 2.63. Further, the “Ki67 Proliferation, Day 6, PB” value was determined as 0.54; the “Ki67 Proliferation, Day 9, IS” value was found to be 0.45; the “Ki67 Proliferation, Day 9, PB” value worked out at 0.

B2: PMX160 (monospecific anti-canine CD3, canine IgG-B effector function deficient Fc) (antibody)
heavy: EVQMVESGGDLVKPGGSLRFSCVASGFTFSSYHMSWVRQAPGKGLQWVAYINSGGSRTSYADAVKGRFTISRDNAKNTLYLQMNSLRAEDTAVYYCASGRSPPPLGSFDYGLDYWGHGTSLFVSSASTTAPSVFPLAPSCGSTSGSTVALACLVSGYFPEPVTVSWNSGSLTSGVHTFPSVLQSSGLYSLSSMVTVPSSRWPSETFTCNVAHPASKTKVDKPVPKRENGRVPRPPDCPKCPAPESLGGPSVFIFPPKPKDTLLIARTPEVTCVVVDLGREDPEVQISWFVDGKQMQTAKTQPREEQFNGTYRVVSVLPIGHQDWLKGKQFTCKVNHIGLPSPIERTISKARGQAHQPSVYVLPPSREELSKNTVSLTCLIKDFFPPDIDVEWQSNGQQEPESKYRTTPPQLDEDGSYFLYSKLSVDKSRWQRGDTFICAVMHEALHNHYTQKSLSHSPGK
VL: SYVLTQLPSKNVTLKQPAHITCGGDNIGSKSVHWYQQKLGQAPVLIIYYDSSRPTGIPERFSGANSGNTATLTISGALAEDEADYYCQVWDSSAKAWVFGEGTQLTVL
Take B2: the “CD25 Activation, Day 6, IS” value turned out to be 10.6; the “CD25 Activation, Day 6, PB” value was 9.42; the “CD25 Activation, Day 9, IS” value is 7.14; the “CD25 Activation, Day 9, PB” value was found to be 5.98. Besides, the “IFNy Concentration pg/ml, Day 6, IS” value was determined as 36.5 pg/mL; the “IFNy Concentration pg/ml, Day 9, IS” value was 114 pg/mL; the “IFNy Concentration pg/ml, Day 9, PB” value was found to be 1460 pg/mL; the “Ki67 Proliferation, Day 6, IS” value stood at 0.84. The “Ki67 Proliferation, Day 6, PB” value was 0.12; the “Ki67 Proliferation, Day 9, IS” value was determined as 1.87; the “Ki67 Proliferation, Day 9, PB” value is 0.33.

B3: PMX162 (monospecific anti-canine CD3, canine IgG-B effector function deficient Fc) (antibody)
heavy: EMQLVESGGDLVKPGGSLRLSCVASGFTFSTYHMSWVRQAPGKGLQWVAYSNSGGTRTYYADAVKGRFTISRDNVKNTLYLQMNSLRAEDTAVYYCASEGSGGGRYGFKDYGMDYWGHGTSLFVSTASTTAPSVFPLAPSCGSTSGSTVALACLVSGYFPEPVTVSWNSGSLTSGVHTFPSVLQSSGLYSLSSMVTVPSSRWPSETFTCNVAHPASKTKVDKPVPKRENGRVPRPPDCPKCPAPESLGGPSVFIFPPKPKDTLLIARTPEVTCVVVDLGREDPEVQISWFVDGKQMQTAKTQPREEQFNGTYRVVSVLPIGHQDWLKGKQFTCKVNHIGLPSPIERTISKARGQAHQPSVYVLPPSREELSKNTVSLTCLIKDFFPPDIDVEWQSNGQQEPESKYRTTPPQLDEDGSYFLYSKLSVDKSRWQRGDTFICAVMHEALHNHYTQKSLSHSPGK
VL: SYVLTQLPSKNVTLKQPAHITCGGDNIGSKSVHWYQQKLGQAPVLIIYYDSSRPTGIPERFSGANSGNTATLTISGALAEDEADYYCQVWDSSAKAWVFGEGTQLTVL
Turning to B3, the “CD25 Activation, Day 6, IS” value was determined as 16; the “CD25 Activation, Day 6, PB” value was found to be 8.64; the “CD25 Activation, Day 9, IS” value was 8.75; the “CD25 Activation, Day 9, PB” value is 10.4. Besides, the “IFNy Concentration pg/ml, Day 6, IS” value amounted to 61.1 pg/mL; the “IFNy Concentration pg/ml, Day 9, IS” value worked out at 89.2 pg/mL; the “IFNy Concentration pg/ml, Day 9, PB” value amounted to 330 pg/mL; the “Ki67 Proliferation, Day 6, IS” value is 1.73. For the same molecule, the “Ki67 Proliferation, Day 6, PB” value was 0.36; the “Ki67 Proliferation, Day 9, IS” value was 0.51; the “Ki67 Proliferation, Day 9, PB” value was determined as 0.43.

B4: PMX165 (monospecific anti-canine CD3, canine IgG-B effector function deficient Fc) (antibody)
heavy: EVQLVESGGDLVKPGGSLRLSCVASGFNFSASHMSWVRQAPGKGLQWVAYITNAGGRISYADAVKGRFTISRDNAKNTLYLQMSSLRVEDTAVYYCATERPGRRMGLKDYGMDYWGHGTSLFVSSASTTAPSVFPLAPSCGSTSGSTVALACLVSGYFPEPVTVSWNSGSLTSGVHTFPSVLQSSGLYSLSSMVTVPSSRWPSETFTCNVAHPASKTKVDKPVPKRENGRVPRPPDCPKCPAPESLGGPSVFIFPPKPKDTLLIARTPEVTCVVVDLGREDPEVQISWFVDGKQMQTAKTQPREEQFNGTYRVVSVLPIGHQDWLKGKQFTCKVNHIGLPSPIERTISKARGQAHQPSVYVLPPSREELSKNTVSLTCLIKDFFPPDIDVEWQSNGQQEPESKYRTTPPQLDEDGSYFLYSKLSVDKSRWQRGDTFICAVMHEALHNHYTQKSLSHSPGK
VL: SYVLTQLPSKNVTLKQPAHITCGGDNIGSKSVHWYQQKLGQAPVLIIYYDSSRPTGIPERFSGANSGNTATLTISGALAEDEADYYCQVWDSSAKASVFGGGTHLTVL
With B4, the “CD25 Activation, Day 6, IS” value was found to be 12.1; the “CD25 Activation, Day 6, PB” value turned out to be 13.4; the “CD25 Activation, Day 9, IS” value came out at 10.4; the “CD25 Activation, Day 9, PB” value is 23.6. Also, the “IFNy Concentration pg/ml, Day 6, IS” value turned out to be 74.6 pg/mL; the “IFNy Concentration pg/ml, Day 9, IS” value was determined as 108 pg/mL; the “IFNy Concentration pg/ml, Day 9, PB” value is 1370 pg/mL; the “Ki67 Proliferation, Day 6, IS” value came out at 1.67. Moreover, the “Ki67 Proliferation, Day 6, PB” value is 0.26; the “Ki67 Proliferation, Day 9, IS” value came to 1.3; the “Ki67 Proliferation, Day 9, PB” value was 0.

B5: PMX163 (monospecific anti-canine CD3, canine IgG-B effector function deficient Fc) (antibody, V domains shown)
VH: ELALQESGPGLVRPSQTLSLTCVVSGGSVTRSYYWNWIRQRPGRGLEWMGYWTGTTIYNPAFQGRISITVDTAKNQFSLHLISMTTEDTAVYYCGREGGSSLGAIAYWGQGTRVTVSS
VL: SYVLTQLPSKNVTLKQPAHITCGGDNIGSKSVHWYQQKLGQAPVLIIYYDSSRPTGIPERFSGANSGNTATLTISGALAEDEADYYCQVWDSSAKAAVFGGGTHLTVL
Consider B5, for which the “CD25 Activation, Day 6, IS” value is 13.3; the “CD25 Activation, Day 6, PB” value was determined as 18.8; the “CD25 Activation, Day 9, IS” value is 10.1; the “CD25 Activation, Day 9, PB” value was found to be 14.6. For the same molecule, the “IFNy Concentration pg/ml, Day 6, IS” value amounted to 56.2 pg/mL; the “IFNy Concentration pg/ml, Day 9, IS” value stood at 145 pg/mL; the “IFNy Concentration pg/ml, Day 9, PB” value turned out to be 3770 pg/mL; the “Ki67 Proliferation, Day 6, IS” value was 4.91. The “Ki67 Proliferation, Day 6, PB” value stood at 0.3; the “Ki67 Proliferation, Day 9, IS” value was found to be 0.71; the “Ki67 Proliferation, Day 9, PB” value came to 0.75.

B6: PMX159 (monospecific anti-canine CD3, canine IgG-B effector function deficient Fc) (antibody, V domains shown)
VH: ELTLQESGPGLVKPSQTLSLTCVVSGGSVTRSYYWNWIRQRPGRGLEWMGYWTGSTIYNPTFQGRISITADTAKSQFSLQLRSMTTEDTAMYFCAREGGKSLGAFAYWGQGTLVTVSS
VL: SYVLTQLPSKNVTLKQPAHITCGGDKIGSKNVHWYQQKLGQAPVMIIYYDSSRPTGIPERFSGANSGNTATLTISGALAEDEADYYCQVWDSSAKAAVFGGGTHLTVL
In the case of B6, the “CD25 Activation, Day 6, IS” value was 11.3; the “CD25 Activation, Day 6, PB” value was determined as 11.5; the “CD25 Activation, Day 9, IS” value stood at 9.13; the “CD25 Activation, Day 9, PB” value stood at 13.1. In addition, the “IFNy Concentration pg/ml, Day 6, IS” value was 137 pg/mL; the “IFNy Concentration pg/ml, Day 9, IS” value was 262 pg/mL; the “IFNy Concentration pg/ml, Day 9, PB” value is 3050 pg/mL; the “Ki67 Proliferation, Day 6, IS” value came out at 1.69. In addition, the “Ki67 Proliferation, Day 6, PB” value stood at 0.37; the “Ki67 Proliferation, Day 9, IS” value stood at 1.28; the “Ki67 Proliferation, Day 9, PB” value was determined as 0.

B7: PMX178 (monospecific anti-canine CD3, canine IgG-B effector function deficient Fc) (antibody, V domains shown)
VH: ELALQESGPGLVRPSQTLSLTCVVSGGSVTRSYYWNWIRQRPGRGLEWMGYWTGTTIYNPAFQGRISITVDTAKNQFSLHLISMTTEDTAVYYCGREGGSSLGAIAYWGQGTRVTVSS
VL: SYVLTQLPSKNVTLKQPAHITCGGDNIGRKSVHWYQQKLGQAPVLIIYYDSSRPTGIPERFSGANSGNTATLTISGALAEDEADYYCQVWDSSAKAAVFGGGTHLTVL
As to B7, the “CD25 Activation, Day 6, IS” value stood at 9.79; the “CD25 Activation, Day 6, PB” value was found to be 20.5; the “CD25 Activation, Day 9, IS” value was 8.41; the “CD25 Activation, Day 9, PB” value came to 9.23. The “IFNy Concentration pg/ml, Day 6, IS” value was found to be 24.7 pg/mL; the “IFNy Concentration pg/ml, Day 9, IS” value was 223 pg/mL; the “IFNy Concentration pg/ml, Day 9, PB” value was 2110 pg/mL; the “Ki67 Proliferation, Day 6, IS” value came to 0.84. Moreover, the “Ki67 Proliferation, Day 6, PB” value was 1.13; the “Ki67 Proliferation, Day 9, IS” value was found to be 1.83; the “Ki67 Proliferation, Day 9, PB” value was 0.16.

B8: PMX173 (monospecific anti-canine CD3, canine IgG-B effector function deficient Fc) (antibody)
heavy: EVQLVESGGDLVKPGGSLRLSCVASGFTFSTYHMSWVRQAPGKGLQWVAYSHSGGTRTYYADAVKGRFTISRDNGKNTLYLQMNSLRAEDTAVYYCASEGSGGGRYGFKDYGMDYWGHGTSLFVSTASTTAPSVFPLAPSCGSTSGSTVALACLVSGYFPEPVTVSWNSGSLTSGVHTFPSVLQSSGLYSLSSMVTVPSSRWPSETFTCNVAHPASKTKVDKPVPKRENGRVPRPPDCPKCPAPESLGGPSVFIFPPKPKDTLLIARTPEVTCVVVDLGREDPEVQISWFVDGKQMQTAKTQPREEQFNGTYRVVSVLPIGHQDWLKGKQFTCKVNHIGLPSPIERTISKARGQAHQPSVYVLPPSREELSKNTVSLTCLIKDFFPPDIDVEWQSNGQQEPESKYRTTPPQLDEDGSYFLYSKLSVDKSRWQRGDTFICAVMHEALHNHYTQKSLSHSPGK
VL: SYVLTQLPSKNVTLKQPAHITCGGDNIGSKSVHWYQQKLGQAPVLIIYYDSSRPTGIPERFSGANSGNTATLTISGALAEDEADYYCQVWDSSAKAWVFGEGTQLTVL
On to B8, for which the “CD25 Activation, Day 6, IS” value was 8.5; the “CD25 Activation, Day 6, PB” value was 13.3; the “CD25 Activation, Day 9, IS” value was 9.37; the “CD25 Activation, Day 9, PB” value came out at 11.5. Further, the “IFNy Concentration pg/ml, Day 6, IS” value was found to be 56.7 pg/mL; the “IFNy Concentration pg/ml, Day 9, IS” value came to 125 pg/mL; the “IFNy Concentration pg/ml, Day 9, PB” value worked out at 1110 pg/mL; the “Ki67 Proliferation, Day 6, IS” value amounted to 1.01. Moreover, the “Ki67 Proliferation, Day 6, PB” value was 0.57; the “Ki67 Proliferation, Day 9, IS” value is 1.38; the “Ki67 Proliferation, Day 9, PB” value was found to be 0.34.
